Measurements: patent US20250270320A1 (EUTILEX, published 2025)

B1: 8D4-T16-02 (antibody, V domains shown)
VH: QVQLVQSGAEVKKPGASVKVSCKASGYTFTTYWIHWVRQAPGQGLEWIGYINPTTGYTEYNQKFKDRATLTADKSTSTAYMELSSLRSEDTAVYYCARGVRYYFDYWGKGTTVTVSS
VL: DIVMTQSPDSLAVSLGERATINCKSSQSLLDSRTRKNYLAWYQQKPGQPPKLLIYWASTRESGVPDRFSGSGSGTDFTLTISSLQAEDVAVYYCQQQYDPPITFGQGTKLEIK
notes: Engineered clone of humanized 8D4; also called T1-02
B2: T15-02 (antibody, V domains shown)
VH: EVQLVESGGGLVKPGGSLRLSCAASGFTFSSFGMSWVRQAPGKGLELVATIYSNGDYTYYPDSVKGRFTVSRDNAKNSLYLQMNSLRAEDTAVYYCARYYGNYGGYFDYWGQGTLVTVSS
VL: AIQMTQSPSSLSASVGDRVTITCKASQSVSNDVAWYQQKPGKAPKLLIYYASNRYTGVPSRFSGSGSGTDFTLTISSLQPEDFATYYCQQDFWYPPTFGGGTKVEIK
B3: T15-05 (antibody, V domains shown)
VH: EVQLVESGGGLVKPGGSLRLSCAASGFTFSSFGMSWVRQAPGKGLELVATIYHSRDYTYYPDSVKGRFTVSRDNAKNSLYLQMNSLRAEDTAVYYCARYYGNYGGYFDYWGQGTLVTVSS
VL: AIQMTQSPSSLSASVGDRVTITCKASQSVSNDVAWYQQKPGKAPKLLIYYASNRYTGVPSRFSGSGSGTDFTLTISSLQPEDFATYYCQQDYSSPPTFGGGTKVEIK
B4: T15-04 (antibody, V domains shown)
VH: EVQLVESGGGLVKPGGSLRLSCAASGFTFSSFGMSWVRQAPGKGLELVATIYSNGDYTYYPDSVKGRFTVSRDNAKNSLYLQMNSLRAEDTAVYYCARYYGNYGGYFDYWGQGTLVTVSS
VL: AIQMTQSPSSLSASVGDRVTITCKASQSVSNDVAWYQQKPGKAPKLLIYYAYMRYTGVPSRFSGSGSGTDFTLTISSLQPEDFATYYCQQDYSSPPTFGGGTKVEIK
B5: T15-03 (antibody, V domains shown)
VH: EVQLVESGGGLVKPGGSLRLSCAASGFTFSSFGMSWVRQAPGKGLELVATIYSNGDYTYYPDSVKGRFTVSRDNAKNSLYLQMNSLRAEDTAVYYCARYYGNYGGYFDYWGQGTLVTVSS
VL: AIQMTQSPSSLSASVGDRVTITCKASQSVSNDVAWYQQKPGKAPKLLIYYAYMRYTGVPSRFSGSGSGTDFTLTISSLQPEDFATYYCHQDYSSPPTFGGGTKVEIK
B6: T14-01 (antibody, V domains shown)
VH: EVQLVESGGGLVQPGGSLRLSCAASGFVFSNYDMSWVRQAPGKGLEWVAYITIGGGTTYYPDTVKGRFTISRDNAKNSLYLQMNSLRAEDTAVYYCARWVYDPLYAMDYWGQGTTVTVSS
VL: DIVLTQTPLSLSVTPGQPASISCRASESVTDYGISFMNWFLQKPGQPPQLLIYAASNQGSGVPDRFSGSGSGTDFTLKISRVEAEDVGVYYCQQSKEVPWTFGQGTKVEIK
B7: T14-04 (antibody, V domains shown)
VH: EVQLVESGGGLVQPGGSLRLSCAASGFVFSNYDMSWVRQAPGKGLEWVAYITIGGGTTYYPDTVKGRFTISRDNAKNSLYLQMNSLRAEDTAVYYCARWRYDPLFAMDYWGQGTTVTVSS
VL: DIVLTQTPLSLSVTPGQPASISCRASESVDNYGISFMNWFLQKPGQPPQLLIYAASNQGSGVPDRFSGSGSGTDFTLKISRVEAEDVGVYYCQQSKEVPWTFGQGTKVEIK
B8: T14-03 (antibody, V domains shown)
VH: EVQLVESGGGLVQPGGSLRLSCAASGFVFSNYDMSWVRQAPGKGLEWVAYITIGGGTTYYPDTVKGRFTISRDNAKNSLYLQMNSLRAEDTAVYYCARWVYDPLYAMDYWGQGTTVTVSS
VL: DIVLTQTPLSLSVTPGQPASISCRASESVTDYGISFMNWFLQKPGQPPQLLIYAASNQGSGVPDRFSGSGSGTDFTLKISRVEAEDVGVYYCQQSEEVPWTFGQGTKVEIK
B9: T14-02 (antibody, V domains shown)
VH: EVQLVESGGGLVQPGGSLRLSCAASGFVFSNYDMSWVRQAPGKGLEWVAYITIGGGTTYYPDTVKGRFTISRDNAKNSLYLQMNSLRAEDTAVYYCARWVYDPLYAMDYWGQGTTVTVSS
VL: DIVLTQTPLSLSVTPGQPASISCRASESVDNYGISFMNWFLQKPGQPPQLLIYAASNQGSGVPDRFSGSGSGTDFTLKISRVEAEDVGVYYCQQSEEVPWTFGQGTKVEIK
B10: 4-8D4 hybridoma antibody (antibody, V domains shown)
VH: QVQLQQSGAELAKPGASVKMSCKASGYTFTTYWIHWVKQRPGQGLEWIGYINPTTGYTEYNQKFKDKATLTADKSSNTAYMQLSSLTSEDSAVYYCARGVRYYFDYWGKGTTLTVSS
VL: DIVMSQSPSSLAVSAGEKVTMSCKSSQSLLDSRTRKNYLAWYQQKPGQSPKLLIYWASTRESGVPDRFTGSGSGTDFTLTISSVKAEDLAVYLCKQSYNLITFGAGTKLELK
notes: Mouse hybridoma antibody
B11: 2-7C5 hybridoma antibody (antibody, V domains shown)
VH: EVQLVESGGGLVQPVGSLKLSCAASGFTFSSFGMSWVRQTPDKRLELVATIYSNGDYTYYPDSVKGRFTVSRDNAKNTLYLQMSSLKSEDTAMYYCARYYGNYGGYFDYWGQGTTLTVSS
VL: SIVMTQTPKFLLVSAGDRVTITCKASQSVSNDVAWYQQKPGQSPKLLIYYASNRYTGAPDRFTGSGYGTDFTFTISTVQAEDLAVYFCQQDYSSPPTFGGGTKLEIK
notes: Mouse hybridoma antibody

How the values were obtained:
[1] = molecular target: T1, human PD-1 expressed on cells (human, UniProt Q15116 25-288); assay: flow cytometry on cells overexpressing hPD-1
T1 construct: whole, on cells; also called hPD-1; 293 cell line stably expressing human PD-1
T1 sequence (Q15116 25-288): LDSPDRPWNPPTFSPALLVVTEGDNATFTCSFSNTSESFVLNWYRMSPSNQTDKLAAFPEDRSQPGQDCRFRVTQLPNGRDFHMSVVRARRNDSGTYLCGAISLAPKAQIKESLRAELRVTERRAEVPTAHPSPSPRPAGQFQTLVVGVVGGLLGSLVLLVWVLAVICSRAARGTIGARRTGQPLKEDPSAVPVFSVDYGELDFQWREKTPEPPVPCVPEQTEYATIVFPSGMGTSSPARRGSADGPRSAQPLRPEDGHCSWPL

[2] = molecular target: T2, recombinant human PD-1-His protein (ECD) (human, UniProt Q15116 25-170); assay: SPR; number in the sensorgram panel without name or unit, taken as KD in M because 8.999e-9 stands for 9 nM in FIG 9d
T2 construct: extracellular domain; Used as ELISA coat and SPR partner; also called rhprotein; antigen; not shown: His tag
T2 sequence (Q15116 25-170): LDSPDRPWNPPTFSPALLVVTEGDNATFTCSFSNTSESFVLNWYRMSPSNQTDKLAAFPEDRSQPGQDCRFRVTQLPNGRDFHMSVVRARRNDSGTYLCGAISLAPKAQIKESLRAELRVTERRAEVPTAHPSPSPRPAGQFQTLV

[3] = molecular target: T1, human PD-1 expressed on cells; assay: flow cytometry on activated hCD8 T cells from human blood, 2nd-hIgG-PE detection; 2nd-hIgG-PE alone 1.73
[4] = molecular target: T1, human PD-1 expressed on cells; assay: cell-based or functional assay
[5] = molecular target: T1, human PD-1 expressed on cells; assay: cell-based or functional assay; remark: listed apart in the source
[6] = molecular target: T2, recombinant human PD-1-His protein (ECD); assay: SPR, purified hybridoma antibody, recombinant human PD-1-His (ECD)

Row | Binder | percent of cells in the positive quadrant [1] [%] | percent of cells in the positive quadrant [3] [%] | other results
1 | B1 | 95.5 |  | Kd [2]: 1800 nM
2 | B2 | 96.9 | 19.3 | 
3 | B3 | 97.5 | 16.1 | 
4 | B4 | 96.6 | 12.4 | 
5 | B5 | 96.7 | 10.7 | EC50 (read off the curve); PD-1/PD-L1 Blockade Bioassay, luciferase RAU [4]: ~1 µg/mL
6 | B6 | 96.8 | 17.4 | 
7 | B7 | 95 | 17.1 | EC50 (read off the curve); PD-1/PD-L1 Blockade Bioassay, luciferase RAU [4]: ~0.8 µg/mL
8 | B8 | 90.9 | 9.55 | 
9 | B9 | 96 | 11.8 | 
10 | B10 |  |  | IC50 (read off the curve); PD-1/PD-L1 blocking reporter assay, fold induction [5]: ~3 µg/mL; Kd [6]: 15.9 nM; koff [6]: 0.00106 s⁻¹; kon [6]: 66700 M⁻¹ s⁻¹
11 | B11 |  |  | IC50 (read off the curve); PD-1/PD-L1 blocking reporter assay, fold induction [5]: ~3 µg/mL; Kd [6]: 17.1 nM; koff [6]: 0.00127 s⁻¹; kon [6]: 74200 M⁻¹ s⁻¹
